Measurements taken from the supplement of paper PMC12783771.
Where a chain is given by its changes, count along the chain named. ± gives the standard deviation of the averaged measurements.

B1: library; numbered along this chain (parent)
chain: MNIQIGELAKRTACPVVTIRFYEQEGLLPPPGRSRGNFRLYGEEHVERLQFIRHCRSLDMPLSDVRTLLSYRKRPDQDCGEVNMLLDEHIRQVESRIGALLELKHHLVELREACSGARPAQSCGILQGLSDCVCDTRGTTAHPSD
B2: library; a variant is named by its letters at X, in order (parent)
chain: B1 chain with D64X, N83X, I90X, K104X, H106X, P143X

Legend:
[1] = variants of: B1; experiment: sfGFP reporter fluorescence (15 h) (µM FITC); higher = higher leak; settings: library round: Round 0; ligand: none
In short: (§1)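 With 1 µM lead chloride, 30 µM zinc acetate or no metal present, 1 μL Echo-assembled reactions were incubated 15 hr at 30 °C. They contained BL21 Star (DE3) PANOx-SP extract, 30 μg/mL GamS, the pPbrR-sfGFP reporter plasmid and PCR-made linear PbrR templates Echo-normalized to 5 nM. Endpoint sfGFP fluorescence was read on a Synergy Neo2 at 485/528 nm against FITC standards in 50 mM sodium borate pH 8.5. Results are expressed as µM FITC.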

[2] = variants of: B1; experiment: sfGFP reporter fluorescence (15 h) (µM FITC); higher = stronger transcriptional activation; settings: library round: Round 0
In short: as §1

[3] = variants of: B2; experiment: sfGFP reporter fluorescence (15 h) (µM FITC); higher = higher leak; settings: library round: Round 3b; ligand: none
Procedure: (§2)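 Cell-free biosensing: 1 µL Echo-assembled CFE reactions with linear PbrR variant templates (5 nM) and pPbrR-sfGFP reporter, with 1 µM Pb, 30 µM Zn or no ligand; endpoint sfGFP fluorescence after 15 h at 30 °C calibrated as µM FITC. Round 3b rational combinatorial PbrR mutants; 3 biological replicates.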

[4] = variants of: B2; experiment: sfGFP reporter fluorescence (15 h) (µM FITC); higher = stronger transcriptional activation; settings: library round: Round 3b
Procedure: as §2

| Variant | sfGFP reporter fluorescence [1] | sfGFP reporter fluorescence ([2]; ligand: 1 µM Pb) | sfGFP reporter fluorescence ([2]; ligand: 30 µM Zn) | sfGFP reporter fluorescence [3] | sfGFP reporter fluorescence ([4]; ligand: 1 µM Pb) | sfGFP reporter fluorescence ([4]; ligand: 30 µM Zn) |
| --- | --- | --- | --- | --- | --- | --- |
| D131Q | 0.06432 ± 0.00026 | 0.124 ± 0.0029 | 1.26 ± 0.24 |  |  |  |
| D131Y | 0.05919 ± 0.00026 | 0.0815 ± 0.0029 | 0.806 ± 0.01 |  |  |  |
| D131F | 0.0596 ± 0.0013 | 0.0821 ± 0.0057 | 0.723 ± 0.048 |  |  |  |
| D131V | 0.0641 ± 0.001 | 0.0905 ± 0.0078 | 0.984 ± 0.15 |  |  |  |
| D131N | 0.0654 ± 0.00078 | 0.103 ± 0.0093 | 1.13 ± 0.24 |  |  |  |
| D131H | 0.0621 ± 0.0013 | 0.0957 ± 0.0026 | 0.996 ± 0.034 |  |  |  |
| D131M | 0.0687 ± 0.0018 | 0.126 ± 0.0073 | 1.17 ± 0.17 |  |  |  |
| D131I | 0.0607 ± 0.0029 | 0.0797 ± 0.0049 | 0.832 ± 0.073 |  |  |  |
| D131P | 0.0546 ± 0.0015 | 0.0619 ± 0.0021 | 0.134 ± 0.015 |  |  |  |
| T139A | 0.0616 ± 0.0015 | 0.0737 ± 0.0036 | 0.7601 ± 0.0031 |  |  |  |
| DFAKAR |  |  |  | 0.0429 ± 0.0064 | 0.0535 ± 0.005 | 0.0435 ± 0.0051 |
| DFAKAT |  |  |  | 0.0421 ± 0.0041 | 0.0502 ± 0.0044 | 0.04614 ± 0.00019 |
| KFAKAT |  |  |  | 0.0569 ± 0.0013 | 0.564 ± 0.039 | 0.0878 ± 0.0047 |
| KFAKAP |  |  |  | 0.0577 ± 0.0042 | 0.495 ± 0.031 | 0.073 ± 0.0081 |
| KFAKAR |  |  |  | 0.0579 ± 0.0044 | 0.663 ± 0.0095 | 0.0902 ± 0.0064 |
| KFAKEP |  |  |  | 0.0525 ± 0.0023 | 0.414 ± 0.015 | 0.0724 ± 0.0068 |
| KFAKET |  |  |  | 0.0549 ± 0.0049 | 0.413 ± 0.019 | 0.0675 ± 0.0044 |
| KFAKER |  |  |  | 0.0536 ± 0.0034 | 0.438 ± 0.026 | 0.0631 ± 0.0086 |
| DFAKET |  |  |  | 0.037 ± 0.0032 | 0.0413 ± 0.00089 | 0.0436 ± 0.0024 |
| DFAKER |  |  |  | 0.044 ± 0.0022 | 0.0459 ± 0.002 | 0.0423 ± 0.00089 |
| DFAVEP |  |  |  | 0.0418 ± 0.0019 | 0.0531 ± 0.0031 | 0.0466 ± 0.0044 |
| KFATAT |  |  |  | 0.0465 ± 0.0042 | 0.455 ± 0.007 | 0.056 ± 0.0037 |
